The target in this series is Hfq (Escherichia coli, UniProt P0A6X3 1-102). Nature of the series: competition; competitor 20-600 fmol vs 20 fmol labelled tRNA (N1); Same conditions as the CCA-addition assay (30 °C, 1 and 10 min); buffer, salt and pH not in the material; native 6% polyacrylamide gel. As to conditions: protein: recombinant; chain copies: 6.
Chain of Hfq (P0A6X3 whole entry): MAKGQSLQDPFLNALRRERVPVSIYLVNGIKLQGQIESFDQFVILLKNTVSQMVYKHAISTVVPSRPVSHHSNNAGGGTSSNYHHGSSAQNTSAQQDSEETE

B1: pCR 2.1 TOPO run-off transcript (ssRNA)
RNA: GGGCGAAUUGGGCCCUCUAGAUGCAUGCUCGAGCGGCCGCCAGUGUGAUGGAU
Turning to B1, the binding result is recorded as “no binding”.

The record behind these values is paper PMC2175515, “Hfq stimulates the activity of the CCA-adding enzyme”.
